From the DeepSol protein solubility set come the findings set out here.

This data set in a line: soluble on expression in E. coli; label from the status in PepcDB or PDB records.
With “MSFITAFRERVFIASGDLIRTFRISEETELKNFISWSKINPERIQKPSFDIEKELKAVEKRVILCLAHSNVLTTHGRRLVAVGTNEKQIHVFEYFVNDKGDIVTAEHIVTSVVPKAPTAIVFDKEDAYVVVGDRAGDVHRFSVLNGSAIEMAGAISMILDVAFSPDGKRLLMADRDEKVRALRYPATSVIDSFFLGHTEYVKTLAVQDNDSLWSSGGDKNLYNWSIAKCSAPRRTLDLSQFDAPIRKISINLQHKKIAVIFEKIETVVIVDLNQESLQTTSVSIVGESQCLDIASTKDYFAVLGRSTVHLIDLNNMEQKFVPIDEELTITLTSTNDAIDNLFKNVTHNNQQEYEKRKADKFEQIEKKKRRLNEDINGDDGEGPGPSNS”, the “soluble on expression in E. coli” value is on record as “not soluble”. The entry for “MTYYNVGKIVNTQGLQGELRVLSVTDFADERFKKKSVLALFDDKDNYIMDVEVASHRKHKNFDIVKFKGLYHINDVEKYKGCSLKIAEENLTDLDDGEFYYHEIIGLDVYEGNTLIGQVKEILQPGANDVWVVKRKGKKDLLLPYIPPVVLDVDVAAGRIEVELMEGLDDEDLEHHHHHH” is “soluble”. As for “SLERYIDGRAVKADIFDHPVSYNINEITHTDDVHEALTASLNKYGNVDMAYMESLTDKSQSDLLEELRGRIFYNPLSKNYEIADRFISGNVMAKAEHIEEYLQSHPDNGEARISLEALRQSLPAPIPFEDLDFNFGERWIPAGVYSRYASWLFDTDVSVRYTASSDEYSIRADMTSPRIMNQYSVRSESRIFNGIALMRHAIHNTTPNITKTVLDKTGKEMKIRDPEVTLLANSKIDEIRNGFSDWLMEQSPEFKRKMADMYNRKFNCFVRPKYDGSHQSFPGLDLKGLGIPDLYPSQ”, the “soluble on expression in E. coli” value was “not soluble”. The entry for “PMSEIVRVHASSGTTGKPTVVGYTRRDIAMWSEVVARALNCAGASREDFIQIAYGYGLFTGGLGLHYGSEKLGATVIPISGGNTQKQVQLMADFKTTVLACTPSYALYLAESLEEAGMTTDDISLRVGIFGAEPWTPGMRKEIEIKLGIKAMDIYGLSEVMGPGVACDCEYQAGLHVN” is “not soluble”.

On to “MEKSAPSIILNHWCVTWQGHHFLCRNLSNIKILNRRNGYTTLDLPLTLGDLTQYRLAHGLSENLMALSPYSWTIPFLVSSSETPGIELLPKVINDFGTPLSLAIKTNLPSIPAHQLLFYIIFLRPSPLTSMSCYARPLSLASTPSLEHHHHHH”, for which the “soluble on expression in E. coli” value is “soluble”. For “SSFQTSLPRLPVPAVKDTVNRYLQSVRPLMKEEDFKRMTALAQDFAVGLGPRLQWYLKLKSWWATNYVSDWWEEYIYLRGRGPLMVNSNYYAMDLLYILPTHIQAARAGNAIHAILLYRRKLDREEIKPIRLLGSTIPLCSAQWERMFNTSRIPGEETDTIQHMRDSKHIVVYHRGRYFKVWLYHDGRLLKPREMEQQMQRILDNTSEPQPGEARLAALTAGDRVPWARCRQAYFGRGKNKQSLDAVEKAAFFVTLDETEEGYRSEDPDTSMDSYAKSLLHGRCYDRWFDKSFTFVVFKNGKMGLNAEHSWADAPIVAHLWEYVMSIDSLQLGYAEDGHCKGDINPNIPYPTRLQWDIPGECQEVIETSLNTANLLANDVDFHSFPFVAFGKGIIKKCRTSPDAFVQLALQLAHYKDMGKFCLTYEASMTRLFREGRTETVRSCTTESCDFVRAMVDPAQTVEQRLKLFKLASEKHQHMYRLAMTGSGIDRHLFCLYVVSKYLAVESPFLKEVLSEPWRLSTSQTPQQQVELFDLENNPEYVSSGGGFGPVADDGYGVSYILVGENLINFHISSKFSCPETDSHRFGRHLKEAMTDIITLFGLSSNSKK”, the “soluble on expression in E. coli” value is given as “soluble”.

Regarding “MAHHHHHHMADQIYHKLINENIKMLCNDLLPNEKKDEKKKEYYNNMNINCSSKCEELCNNINDRLQKIKDIVHLRSTKANGILIETLNYIKEYIKEIEKYIQIFNKLIYEENRAYLFIEEIFNTLENQNQNIQKIYNICSKNIVITKNNNELILKNPKACSSLSYEFVNNLMNSGQQKNNNNNNNKKEQIVQQHNIENQGANYLN”, the “soluble on expression in E. coli” value is on record as “not soluble”.

“VPMHPFVKALQEHFTAHQNPEKAEPMARYMKNHFLFLGIQTPERRQLLKDIIQIHTLPDQKDFQIIIRELWDLPEREFQAAALDIMQKYKKHINETHIPFLEELIVTKSWWDSVDSIVPTFLGDIFLKHPELISAYIPKWIASDNIWLQRAAILFQLKYKQKMDEELLFWIIGQLHSSKEFFIQKAIGWVLREYAKTNPDVVWEYVQNNELAPLSKREAIKHIKQNYGINNEKIGETLS”: the “soluble on expression in E. coli” value is reported as “soluble”. As for “MGSDKIHHHHHHMNWDNARFFLALARTGTLRGAAAQLNVDQATVGRRIAALEDELSARLFLRTPALYVLTTAGEALLEPAETMERASLTIERRVMGLDEQLAGTVRIATTDSLGKRFVIPAIARLRRRHAGIDVVCVTSTEIANLTRREADLAIRTLRPESPDLIVRRLGHLETGIYASRHYLAERGEPVAGSAFDGHDLVMYQQPVMPTMWDALCGEPTSRGRVMFQTSSTMMLVEAALAGLGIAELPCFRAEAEPELVRLMARRCNHFDVWLVAHADLYKTARVQAVIEAVVEEFATAAPSTR”, the “soluble on expression in E. coli” value is “not soluble”.

As to “MESLYTSTLSEISEEEIVKGRIVSISNKDVTIDVGFKSEGIVSLLEFRDDDEIKVGDDVEVYLENIEDKMGQLILSKRKADVLRIWDKIYDSIENDTIINGKIINRVKGGMTVSLSGVEAFLPGSQIDVKPVRDFDALVGKTMDFRVVKINPVTQNIVVSHKVILEEEYAAKREEMLANIKVGMVLEGTVKNITDFGIFVDLGGLDGLVHITDITWGRINHPSEVVELDQPIKVVVVGFDENTKRVSLGMKQLEAHPWENIEIKYPVGIKATGRVVSITDYGAFVEIEKGIEGLVHISEMSWTQHIKHPSQFVSLNQEVEVVILNIDKEHTKLSLSMKRVSEDPWIALSEKYVEGSLHKGTVSNITDFGVFVELEPGVDGLVHISDLSWTKKIRHPSELVKKGQELEVKVLKFDVNARRIALGHKQINNDPWGEFEQKYAVGAECTGAISQIIEKGVIVILPGEVDGFVPVSHLLQGGVKDIHSSFKIGDELPLRVIEFDKENKRIILSALEYFKDKSKEEIEAYLQAHPNEKKEIEAASAELEPQPKGR”, the “soluble on expression in E. coli” value is recorded as “not soluble”.

In the case of “SLVKLSTPLRVVTTLPHQPGRTGYIVFKKVPESFRCDSIASFYRRVRRSMGLREAVVFLTAAEVDRPLHEVIDEPETHIIATVGLKPPACPGGTAGAPRPGTINIAVATSAGLSRAGAIDLLRVVAEAKAAAAAEALLPCLHRATGTATDAIAVLHTPGATDFSGFYTRLGGLVGRSLYFALVDAAVARRGPDSLLRALTGMSMEGLLELFRRVYMQSPIPGVPVEEALGRAGRMLERMMRDPNVAALLIAARELDLHGSAGAIPGLSRSGYKGDSKAIVADELLAAALAEYLAGFKGLLATIWVEKLKSMGLADAGLPMFMDDMVSAVVGSLVSRLHDEVREG”, the “soluble on expression in E. coli” value is given as “soluble”.

Consider “MTDSDNPRRVLLKLSGEAFGGGKVGIDTQVIRRIAEEIVPAVQQGVQVAIVVGGGNFFRGAELQQAGIDRSRGDYMGMLGTVMNCLALQDFLEQEGQATRVQTAITMGQVAEPYIPLKAIRHLEKGRVVIFGAGAGMPYFSTDTVSIQRSLEIHCDEVLMGKNGVDGVYTADPRKDENAKRFETLSYNRALVDNLAVMDASALSMARDNKKRIRVFGLEEPGNVTRALVGDEIGTLVSTAESRVAELEHHHHHH”, for which the “soluble on expression in E. coli” value is reported as “soluble”. As for “MEALGADVTQGLEKGSLITCADNTGARELKVISVHGYSGTKNRHPKAGLGDKITVSVTKGTPEMRRQVLEAVVVRQRKPIRRPDGTRVKFEDNAAVIVDENEDPRGTELKGPIAREVAQRFGSVASAATMIV”, the entry is “soluble”. The entry for “MSLSENIAAYVGLDVHKETLAVAIAAPERLGEVRYYGTINNEAQAVRRLFQKLQGLYGNILSCYEAGPCGFGLYHQLTAMNIKCQVIAPSRIPKSPTDRIKNDHRDAISLARLLRAGELTPVWIPDLTHEAMRDLIRARAAAKRDSRVARQRILSMLLRTDKHYAGKHWTGKHRTWLANQSFSQPSQQIAFQHYCQSLEQIEDRILQLDQEISRLLPEWSLCNLVCQLQALKGVGQLIAITLVAELGDFSRFSNPKQLMAFLGLVPGEYSSGNSIRPRGITKVGNSELRRLLYEAAWSYRTPAKVGAWLIYYRPDSVTQYSKDIAWKAQQRLCSRYRSLTAKGKKSQVAITAVARELTGFMWDIALAEGHHHHHH” is “not soluble”. As for “MLAVVDEEGTPVAGAMGFAQVVRDGLVVDYIGAVDILRELKATLEESLGAELLKAGVAYPPGTSPGDQKALHYIAEAAGFNVIAALDEPTAANNVLNIEDGAVIDIGGGTTGTAVIGQGQVVCVADEPTGGTHVSLVIAGAYRLPFAEAEKLKMDSCKHQELLPIIKPVIEKIAGIIRQHIQEHPVDQVYLVGGTSCFTGFETIVAAELQRPVIKPANPFLVTPLGIALAAAKTCSNP”, the entry is “not soluble”. As for “MIEFSENSHRKSLIEELPRIVERGEKEAQKILDGLSKSQRITLQTNELVLPTKAIGELNKFYGQTIKTENNNEFLNRLIYGDNLLAMQAFLAGDPETGLPSMRGKIDLIYIDPPFDSKANYRTKIHLPTADVEQMPSVIEQFAYSDTWKDGTKSYLEMIVPRLVLMKELLSEKGSIYVHIDWHVGHYVKVIMDEIFGRENFVNEIVWKKTNSPKAQSKGFGTQHDVLYIYRKTPQFIFNQIKKEPDEDYLKSYVYDDNDGRGPYQTVALVAGGIQRSENRKIFEFHGVRAPWLYSLENLERFWSDGRIFKTKTGYRLKVYLKDIALRLYLIYGLTRK”, the “soluble on expression in E. coli” value is recorded as “not soluble”.

“MNVLFTSVPQEDVPFYQEALKDLSLKIYTTDVSKVPENELKKAELISVFVYDKLTEELLSKMPRLKLIHTRSVGFDHIDLDYCKKKGILVTHIPAYSPESVAEHTFAMILTLVKRLKRIEDRVKKLNFSQDSEILARELNRLTLGVIGTGRIGSRVAMYGLAFGMKVLCYDVVKREDLKEKGCVYTSLDELLKESDVISLHVPYTKETHHMINEERISLMKDGVYLINTARGKVVDTDALYRAYQRGKFSGLGLDVFEDEEILILKKYTEGKATDKNLKILELACKDNVIITPHIAYYTDKSLERIREETVKVVKAFVKGDLEQIKGNFVVGPS”: the “soluble on expression in E. coli” value is given as “soluble”. As for “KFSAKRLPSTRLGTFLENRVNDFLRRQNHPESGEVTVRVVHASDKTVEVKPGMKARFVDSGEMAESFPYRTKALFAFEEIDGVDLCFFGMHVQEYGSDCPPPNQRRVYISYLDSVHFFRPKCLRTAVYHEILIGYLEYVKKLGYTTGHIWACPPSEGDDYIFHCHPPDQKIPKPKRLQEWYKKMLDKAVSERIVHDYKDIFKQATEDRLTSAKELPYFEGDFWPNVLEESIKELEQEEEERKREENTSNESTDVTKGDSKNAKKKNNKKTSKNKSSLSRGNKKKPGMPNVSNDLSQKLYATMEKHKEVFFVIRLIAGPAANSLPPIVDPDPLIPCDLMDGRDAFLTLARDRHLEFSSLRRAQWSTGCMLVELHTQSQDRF”, the entry is “soluble”; as for “LYIHGFASSGESHKAKALKAGLAPYEVMTPTLSYVPSLAFQTLRQLVDESLAQKEELTLIGASLGGYYATQLSWLYNLKAILINPAITPYETL”, “not soluble”. The entry for “MAHHHHHHMAALKNKIHRIGKRKGATLKDVSAWRWIKTAARHFKQEGKIFVPNCTEIMKSSHGRERAPQNPDWYYIRCAAVLRAIYLRPGVGYGGLSKRFGNKKNYGSRPEHTVTSSTGPLHWACKSLTKLGLVEPGAQSGQRLTRKGHKFADSLAFQVQIRKFGAST” is “soluble”; for “GSHMSSGYPGVSWNKRMCAWLAFFYDGASRRSRTFHPKHFNMDKEKARLAAVEFMKTVENNGRKKLEPGGSQFIVTD” it is “soluble”.
